Where a chain is given by its changes, count along the chain named. Names may count otherwise.
B1: anti-TGFβ antibody ZTS-4155, canine IgGB (65), wild-type (antibody)
heavy: EVQLVQSGAEVKKPGASVKVSCKTSGYTFITYWMNWVRQAPGAGLDWMGQIFPASGSTNYNEMFEGRVTLTADTSTSTAYMELSSLRAGDIAVYYCARGDGNYALDAMDYWGQGTLVTASTTAPSVFPLAPSCGSTSGSTVALACLVSGYFPEPVTVSWNSGSLTSGVHTFPSVLQSSGLYSLSSMVTVPSSRWPSETFTCNVAHPASKTKVDKPVPKRENGRVPRPPDCPKCPAPEMLGGPSVFIFPPKPKDTLLIARTPEVTCVVVDLDPEDPEVQISWFVDGKQMQTAKTQPREEQFNGTYRVVSVLPIGHQDWLKGKQFTCKVNNKALPSPIERTISKARGQAHQPSVYVLPPSREELSKNTVSLTCLIKDFFPPDIDVEWQSNGQQEPESKYRTTPPQLDEDGSYFLYSKLSVDKSRWQRGDTFICAVMHEALHNHYTQESLSHSPGK
VL: DIVMTQTPPSLSVSPRETASISCRASESVDSYGNSFMHWYLQKPGQSPQLLIYLASNLESGVSDRFSGSGSGTDFTLRISRVEANDTGVYYCQQNNEDPLTFGQ
notes: built here as variable domain plus IgGB constant domain; also called mAb3 WT
B2: anti-TGFβ antibody ZTS-4155, canine IgGB (65), N434H (antibody)
heavy: B1 heavy with N440H
VL: B1 VL
notes: See m9; also called mAb3 N434H
B3: caninized anti-IL31 antibody 34D03, canine IgGB (65), wild-type (antibody)
heavy: EVQLVESGGDLVKPGGSLRLSCVASGFTFSNYGMSWVRQAPGKGLQWVATISYGGSYTYYPDNIKGRFTISRDNAKNTLYLQMNSLRAEDTAMYYCVRGYGYDTMDYWGQGTLVTVSSASTTAPSVFPLAPSCGSTSGSTVALACLVSGYFPEPVTVSWNSGSLTSGVHTFPSVLQSSGLYSLSSMVTVPSSRWPSETFTCNVAHPASKTKVDKPVPKRENGRVPRPPDCPKCPAPEMLGGPSVFIFPPKPKDTLLIARTPEVTCVVVDLDPEDPEVQISWFVDGKQMQTAKTQPREEQFNGTYRVVSVLPIGHQDWLKGKQFTCKVNNKALPSPIERTISKARGQAHQPSVYVLPPSREELSKNTVSLTCLIKDFFPPDIDVEWQSNGQQEPESKYRTTPPQLDEDGSYFLYSKLSVDKSRWQRGDTFICAVMHEALHNHYTQESLSHSPGK
VL: EIVMTQSPASLSLSQEEKVTITCKASQSVSFAGTGLMHWYQQKPGQAPKLLIYRASNLEAGVPSRFSGSGSGTDFSFTISSLEPEDVAVYYCQQSREYPWTFGQGTKLEIK
notes: also called mAb1 WT; ID No. 8
B4: caninized anti-IL31 antibody 34D03, canine IgGB (65), N434H (antibody)
heavy: B3 heavy with N440H
VL: B3 VL
notes: also called mAb1 N434H; ID No. 31
B5: anti-TGFβ antibody ZTS-4155, canine IgGB (65), N434M (antibody)
chain 1: EVQLVQSGAEVKKPGASVKVSCKTSGYTFITYWMNWVRQAPGAGLDWMGQIFPASGSTNYNEMFEGRVTLTADTSTSTAYMELSSLRAGDIAVYYCARGDGNYALDAMDYWGQGTLVTVSSASTTAPSVFPLAPSCGSTSGSTVALACLVSGYFPEPVTVSWNSGSLTSGVHTFPSVLQSSGLYSLSSMVTVPSSRWPSETFTCNVAHPASKTKVDKPVPKRENGRVPRPPDCPKCPAPEMLGGPSVFIFPPKPKDTLLIARTPEVTCVVVDLDPEDPEVQISWFVDGKQMQTAKTQPREEQFNGTYRVVSVLPIGHQDWLKGKQFTCKVNNKALPSPIERTISKARGQAHQPSVYVLPPSREELSKNTVSLTCLIKDFFPPDIDVEWQSNGQQEPESKYRTTPPQLDEDGSYFLYSKLSVDKSRWQRGDTFICAVMHEALHMHYTQESLSHSPGK
chain 2: DIVMTQTPPSLSVSPRETASISCRASESVDSYGNSFMHWYLQKPGQSPQLLIYLASNLESGVSDRFSGSGSGTDFTLRISRVEANDTGVYYCQQNNEDPLTFGQGTKLEIKRNDAQPAVYLFQPSPDQLHTGSASVVCLLNSFYPKDINVKWKVDGVIQDTGIQESVTEQDKDSTYSLSSTLTMSSTEYLSHELYSCEITHKSLPSTLIKSFQRSEC
B6: anti-TGFβ antibody ZTS-4155, canine IgGB (65), N434V (antibody)
chain 1: B5 chain 1 with M443V
chain 2: B5 chain 2
B7: anti-TGFβ antibody ZTS-4155, canine IgGB (65), N434R (antibody)
chain 1: B5 chain 1 with M443R
chain 2: B5 chain 2
B8: anti-TGFβ antibody ZTS-4155, canine IgGB (65), N434Y (antibody)
chain 1: B5 chain 1 with M443Y
chain 2: B5 chain 2
B9: anti-TGFβ antibody ZTS-4155, canine IgGB (65), N434W (antibody)
chain 1: B5 chain 1 with M443W
chain 2: B5 chain 2
B10: anti-TGFβ antibody ZTS-4155, canine IgGB (65), N434T (antibody)
chain 1: B5 chain 1 with M443T
chain 2: B5 chain 2
B11: anti-TGFβ antibody ZTS-4155, canine IgGB (65), N434Q (antibody)
chain 1: B5 chain 1 with M443Q
chain 2: B5 chain 2
B12: caninized anti-NGF antibody mAb2 of Tables 1-3, canine IgGB (65), wild-type (antibody, part only; not given: Anti-NGF heavy and light variable domains, part only)
heavy, part: ASTTAPSVFPLAPSCGSTSGSTVALACLVSGYFPEPVTVSWNSGSLTSGVHTFPSVLQSSGLYSLSSMVTVPSSRWPSETFTCNVAHPASKTKVDKPVPKRENGRVPRPPDCPKCPAPEMLGGPSVFIFPPKPKDTLLIARTPEVTCVVVDLDPEDPEVQISWFVDGKQMQTAKTQPREEQFNGTYRVVSVLPIGHQDWLKGKQFTCKVNNKALPSPIERTISKARGQAHQPSVYVLPPSREELSKNTVSLTCLIKDFFPPDIDVEWQSNGQQEPESKYRTTPPQLDEDGSYFLYSKLSVDKSRWQRGDTFICAVMHEALHNHYTQESLSHSPGK
B13: caninized anti-NGF antibody mAb2 of Tables 1-3, canine IgGB (65), N434H (antibody, part only; not given: Anti-NGF heavy and light variable domains, part only)
heavy, part: B12 heavy, part with N322H
B14: anti-TGFβ antibody ZTS-4155, canine IgGB (65), N434C (antibody)
chain 1: B5 chain 1 with M443C
chain 2: B5 chain 2

molecular target: T1, canine FcRn complex (FcRn-α subunit and β-microglobulin) (canine, UniProt A0A8I3PFR8 25-347, biotin labeled through BirA enzymatic reaction in Example 5); assay: SPR (Biacore), FcRn amine-coupled on CM5, IgG as analyte, pH 6, 15 C
T1 sequence (A0A8I3PFR8 entry or part of it, one chain of several): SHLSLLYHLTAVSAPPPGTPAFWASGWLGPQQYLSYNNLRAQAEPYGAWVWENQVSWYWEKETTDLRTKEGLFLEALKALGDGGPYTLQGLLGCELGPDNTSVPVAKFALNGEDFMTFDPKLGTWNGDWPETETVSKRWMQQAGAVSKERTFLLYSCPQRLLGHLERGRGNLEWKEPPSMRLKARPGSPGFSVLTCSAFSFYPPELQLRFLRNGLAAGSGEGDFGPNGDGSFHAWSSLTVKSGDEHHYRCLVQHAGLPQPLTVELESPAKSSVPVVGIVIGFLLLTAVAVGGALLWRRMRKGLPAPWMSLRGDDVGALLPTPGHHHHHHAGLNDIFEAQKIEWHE

Q: How did the Kd turn out when B1 was run?
A: 523 nM

Q: Which Kd does the source give for B2 here?
A: 4.8 nM

Q: B3 was tested. Which Kd did it give?
A: 15 to 24.4 nM

Q: B4 was tested. Which Kd did it give?
A: 0.7 to 1.3 nM

Q: Which Kd does the source give for B5 here?
A: 18.8 nM

Q: With B6 as the binder, how does the Kd read?
A: 13.6 nM

Q: B7 was tested. Which Kd did it give?
A: 2.7 nM

Q: B8 was tested. Which Kd did it give?
A: 1.56 nM

Q: Which Kd does the source give for B9 here?
A: 2.11 nM

Q: How did the Kd turn out when B10 was run?
A: 16.6 nM

Q: With B11 as the binder, how does the Kd read?
A: 11.8 nM

molecular target: NGF (target protein of mAb2); assay: cell-based or functional assay

Q: For B12, which IC50 (cell based potency assay) is on record?
A: 23.7 nM

Q: With B13 as the binder, how does the IC50 (cell based potency assay) read?
A: 20.9 nM

molecular target: IL-31 (target protein of mAb1); assay: cell-based or functional assay

Q: B3 was tested. Which IC50 (cell based potency assay) did it give?
A: 1.1 nM

Q: How did the IC50 (cell based potency assay) turn out when B4 was run?
A: 0.99 nM

molecular target: TGFβ (target protein of mAb3); assay: cell-based or functional assay

Q: How did the IC50 (cell based potency assay) turn out when B1 was run?
A: 0.13 µg/mL

molecular target: canine FcRn complex (FcRn-α subunit and β-microglobulin) (canine); assay: SPR (Biacore), FcRn amine-coupled on CM5, IgG as analyte, pH 6, 15 C

Q: How did the Kd turn out when B12 was run?
A: 57.2 nM

Q: How did the Kd turn out when B13 was run?
A: 7.3 nM

molecular target: canine FcRn complex (FcRn-α subunit and β-microglobulin) (canine); assay: SPR (Biacore), FcRn amine-coupled on CM5, IgG as analyte, pH 7.2, 15 C

Q: With B13 as the binder, how does the Kd read?
A: 1300 nM

molecular target: T1, canine FcRn complex (FcRn-α subunit and …); assay: as above

Q: For B2, which Kd is on record?
A: 38 nM

Q: Which Kd does the source give for B4 here?
A: 5000 nM

Q: How did the Kd turn out when B5 was run?
A: 11 nM

Q: B6 was tested. Which Kd did it give?
A: 6.19 nM

Q: How did the Kd turn out when B7 was run?
A: 285 nM

Q: With B8 as the binder, how does the Kd read?
A: 38.6 nM

Q: With B9 as the binder, how does the Kd read?
A: 162 nM

Q: With B10 as the binder, how does the Kd read?
A: 406 nM

Q: B14 was tested. Which Kd did it give?
A: 270 nM

Q: Which Kd does the source give for B11 here?
A: 50.2 nM

— patent US20260193334A1 (ZOETIS SERVICES, published 2026)
